According to article PMC11847629:

Key:
GATA3 Western blot, JEG3 = conditions: control: untreated
[1] = CHX chase, Western blot, JEG3; conditions: control: untreated (respective controls)
[2] = GATA3 Western blot, primary human trophoblasts; conditions: glycan gained; control: DMSO
[3] = CHX chase, Western blot, primary human trophoblasts; conditions: glycan gained; control: untreated (respective controls)
[4] = GATA3 Western blot, JEG3; mRNA equal; conditions: glycan lost; control: WT-G plasmid
[5] = CHX chase, Western blot, JEG3, hypoxia; conditions: glycan lost; control: WT-G plasmid under 2% O2
[6] = CHX chase, Western blot, JEG3, normoxia; conditions: glycan lost; control: WT-G plasmid
[7] = Hypoxic rise of GATA3 protein, Western blot, JEG3; conditions: glycan lost; control: WT-G plasmid, 2% vs 21% O2

Which results are given for “GATA3 (GATA binding protein 3): TMG (OGA inhibitor)”?
expression_or_secretion (GATA3 Western blot, JEG3; glycan gained): increases; degradation_or_half_life ([1]; glycan gained): increases; expression_or_secretion [2]: increases; degradation_or_half_life [3]: increases

Which “expression_or_secretion, fold_change” value [4] does the source give for GATA3 (GATA binding protein 3): T322A-G here?
Its value is “decreases”.

And the degradation_or_half_life [5]?
The degradation_or_half_life was “changes”.

What about the degradation_or_half_life [6] of the same substance?
The degradation_or_half_life was “decreases”.

And the expression_or_secretion [7]?
The expression_or_secretion was “abolishes”.

Which results are given for “GATA3 (GATA binding protein 3): Ac45S (OGT inhibitor)”?
expression_or_secretion (GATA3 Western blot, JEG3; glycan lost): decreases; degradation_or_half_life ([1]; glycan lost): decreases
